Experiment [1] deals with HLA-B*18:01. As to the kind of experiment: IEDB peptide-MHC binding, purified MHC/competitive/radioactivity; filed as Kd, often an IC50 or EC50 that approximates it; ≥ and ≤ were set here for values at or beyond the usual limits of such assays.
Experiment [2] has as its target HLA-B*40:02. Described as above.
Experiment [3] addresses HLA-B*40:01. The experiment is described as above.
The target in experiment [4] is HLA-B*45:01. Described as above.
For experiment [5], the target named is HLA-B*44:02. The experiment is described as above.
Experiment [6] deals with HLA-B*44:03. The experiment is described as above.
For experiment [7], the target named is HLA-A*01:01. The description is as above. To be noted: source organism: Dengue virus 2 Jamaica/1409/1983.
Experiment [8] concerns the target HLA-A*30:02. The description is as above.
Experiment [9] concerns the target HLA-B*15:01. The description is as above.
Experiment [10] has as its target HLA-A*24:02. As to the kind of experiment: IEDB peptide-MHC binding, purified MHC/competitive/fluorescence; ≥ and ≤ were set here for values at or beyond the usual limits of such assays. The conditions noted are these: source organism: Vaccinia virus.
For experiment [11], the target named is HLA-A*02:01. The experiment is described as above. The conditions noted are these: source organism: Vaccinia virus.
Experiment [12] has as its target HLA-A*11:01. The description is as above.
For experiment [13], the target named is HLA-B*07:02. As to the kind of experiment: IEDB peptide-MHC binding, purified MHC/competitive/radioactivity; filed as Kd, often an IC50 or EC50 that approximates it; ≥ and ≤ were set here for values at or beyond the usual limits of such assays.
The target of experiment [14] is HLA-B*51:01. The description is as above. The conditions noted are these: source organism: Dengue virus 2 Peru/IQT2913/1996.
The target of experiment [15] is HLA-B*53:01. Described as above. The conditions noted are these: source organism: Dengue virus 2 Peru/IQT2913/1996.
The target in experiment [16] is HLA-B*35:01. Described as above.
Experiment [17] has as its target HLA-A*24:02. Described as above. To be noted: source organism: Dengue virus 3 Martinique/1243/1999.
Experiment [18] concerns the target HLA-A*23:01. The description is as above. To be noted: source organism: Dengue virus 3 Martinique/1243/1999.
In experiment [19] the target is HLA-A*26:01. The experiment is described as above. The conditions noted are these: source organism: Dengue virus 3 Martinique/1243/1999.
The target of experiment [20] is HLA-A*32:01. The experiment is described as above. The conditions noted are these: source organism: Vaccinia virus Copenhagen.
Setting [21] is: source organism: SARS coronavirus Tor2.
The mark [22] stands for this setting: source organism: Dengue virus 2 Jamaica/1409/1983.
[23] abbreviates: source organism: Vaccinia virus WR.
Setting [24] is: source organism: Mammarenavirus machupoense.
[25] abbreviates: source organism: Dengue virus 3 Martinique/1243/1999.
Where [26] appears, read: source organism: Lymphocytic choriomeningitis virus (strain WE).
The mark [27] stands for this setting: source organism: Mammarenavirus juninense.

In general, Kd refers to the constant that tells how readily two partners part at equilibrium. What is called IC50 is the point on the concentration scale where inhibition reaches its midpoint. A higher IC50 goes with weaker potency in that assay.

On to QELYSPLFL, for which the dissociation constant (Kd) in experiment [1] (setting [21]) turned out to be 5570 nM; in experiment [2] (setting [21]), 155 nM; in experiment [3] (setting [21]) it was 102 nM; in experiment [4] (setting [21]), 2210 nM; in experiment [5] (setting [21]), 205 nM; in experiment [6] (setting [21]) it was 222 nM.
With SMANIFRGSY, the Kd amounted to 3250 nM in experiment [7], 8.95 nM in [8] (setting [22]) and 0.27 nM in [9] (setting [22]).
For the sequence VNIKYNPHI, in experiment [9] (setting [23]), the Kd is 141 nM.
VSYNDYFNV: the IC50 in [10] was no less than 77100 nM; in experiment [11] it was 743 nM; in experiment [12] (source organism: Vaccinia virus) it was 14300 nM.
Take DELGNILSTY: the Kd is 8.62 nM in experiment [1] (setting [24]); 5380 nM in experiment [2] (setting [24]); no less than 69500 nM in experiment [3] (setting [24]); no less than 70000 nM in experiment [4] (setting [24]); 1860 nM in experiment [5] (setting [24]); 361 nM in experiment [6] (setting [24]).
With IPTVMAFHL, the Kd in experiment [13] (source organism: Dengue virus 2 Peru/IQT2913/1996) came out at 596 nM; in [14], 5510 nM; in experiment [15], 48.9 nM.
As to TPPGSRDPF, the values for the Kd in [13] (setting [22]) and in experiment [16] (setting [22]) were 9880 nM and 160 nM, respectively.
For HMIAGVFFTF, the Kd in experiment [17] is 98.9 nM; in experiment [18], 28.9 nM; in experiment [19], no less than 32800 nM; in [9] (setting [25]), 1.47 nM.
Regarding REPTDQKQF, the Kd in experiment [1] (setting [26]) was no less than 77500 nM; in experiment [2] (setting [26]), 6290 nM; in experiment [3] (setting [26]), no less than 20400 nM; in experiment [4] (setting [26]) it was no less than 77700 nM; in experiment [5] (setting [26]) it was 1340 nM; in experiment [6] (setting [26]), 8940 nM.
As to EEGNLLDSYF, the Kd was 10700 nM in experiment [1] (setting [21]); no less than 70800 nM in [2] (setting [21]); no less than 41800 nM in experiment [3] (setting [21]); no less than 20200 nM in experiment [4] (setting [21]); 3.88 nM in [5] (setting [21]); 11.7 nM in experiment [6] (setting [21]).
Consider MVHQIFGSAY, for which the Kd in experiment [8] (setting [25]) was no less than 61900 nM; in experiment [16] (setting [25]), 18 nM; in [19] it was 11.6 nM; in experiment [9] (setting [25]), 37.2 nM.
Consider LMRSICVSI, for which the Kd in [20] was 380 nM; in experiment [9] (source organism: Vaccinia virus Copenhagen), 63.4 nM.
Sequence ANGSLFTEQ yielded an IC50 in experiment [12] (setting [23]) of no less than 104000 nM.
Regarding VEAVMYMGTL, the Kd in experiment [1] (setting [21]) was 7240 nM; in experiment [2] (setting [21]), 33.8 nM; in experiment [3] (setting [21]), 22.2 nM; in experiment [4] (setting [21]), 508 nM; in experiment [5] (setting [21]), 1540 nM; in [6] (setting [21]), 516 nM.
Turning to AETGSQGVYM, the Kd in experiment [1] (setting [27]) was no less than 70400 nM; in experiment [2] (setting [27]), 184 nM; in experiment [3] (setting [27]) it was 3030 nM; in experiment [4] (setting [27]), 13600 nM; in experiment [5] (setting [27]) it was 304 nM; in experiment [6] (setting [27]), 1040 nM.
Regarding SELAKGVAL, the Kd in experiment [1] (setting [21]) was 1110 nM; in experiment [2] (setting [21]), 14.1 nM; in experiment [3] (setting [21]) it was 3.35 nM; in experiment [4] (setting [21]), 401 nM; in [5] (setting [21]) it was 132 nM; in experiment [6] (setting [21]), 175 nM.

Values taken from the Immune Epitope Database (IEDB).
